From the RNAGym collection of RNA variant scans (doi:10.7554/elife.90254)

B1: OR4K15 (parent)
chain: GUUAACGGUCAUAGGCCAUGGAAACUAGGAGCACCAUUUCGCUGCCAGUGAAGAAAUGAACAAAGAAAAUCUGGGCCAGGCAGGCAUCAAAAGAAAUAGUCUUGCGCUCAACCAGAAAGUCUGUAAUCAUUUUAAGGGUA

Variants of: B1
Assay: self-cleavage, relative activity (ratio to wild type); higher = more cleavage; in vitro, sequencing; the parent is a self-cleaving ribozyme

Variant | self-cleavage
A64G C121G | 2.89
A64G A116U | 0.19
A62U A96G | 1.69
A63U A69G | 0.49
A62U A111U | 0.07
A63G U139C | 1.1
A62G A134U | 1.75
A62G G80C | 0.13
A62G G80A | 0.35
A62U C88U | 2.34
A62C U108A | 0.02
A64G A89G | 1.49
A64G A89C | 0.64
A64U A126U | 1.2
G65U G138A | 1.24
A62G A96U | 1.26
A64C A68G | 1.44
G65A U124A | 1.36
A62U A140G | 0.67
A62U A110G | 0.14
A62U A86G | 1.88
A64G U131C | 1.2
A64G A140G | 1.47
A62G A110C | 0.34

Variant | self-cleavage
A62G G73A | 0.15
A63C U132C | 2.13
A63G U108G | 0.03
A63G U108A | 0.01
A63G U108C | 0.02
A62C U120C | 0.93
A64G A117G | 1.7
A63U A126G | 1.31
A64G G137U | 2.23
A63U A92G | 1.88
A64G A95U | 0.64
A64G A95G | 1.12
A62G A89G | 0.94
A62G A89U | 1.85
A62G U133A | 1.51
A62G U133C | 1.14
G65A U130C | 0.71
A63G G99U | 1.14
A64G C112U | 0.01
A64C A82U | 0.26
A64U A67G | 1.32
G65A A68G | 1.57
A62U U102C | 1.91
A64U G79U | 0.17

Variant | self-cleavage
A64U A96C | 1.28
G65U G83U | 0.44
G65U A86G | 0.19
A62G U102C | 1.19
A64G C109U | 0.36
A62G U130C | 1.15
A62G U130G | 1.06
A66G A67G | 1.22
G65U | 2
G65A | 1.5
A64G G84C | 0.31
A64U A135G | 1.22
A63G C88U | 1.69
A63G U120A | 0.94
A63G U120C | 1.27
A64G C85U | 0.98
A63U U100A | 0.96
A62G G84A | 1.73
A62G G84C | 0.49
A62G C113U | 0.14
A64U U130C | 1.12
A63U U87A | 1.18
A66G A91G | 1.04
A62G C88G | 1.14

Variant | self-cleavage
A64G G138A | 1.9
A62C U122C | 1.33
A62G A82U | 0.25
A62G A82G | 0.49
A63G U87C | 1.59
A63G U87A | 2.02
A63U U103A | 0.49
A64G U139C | 1
A62G A117C | 0.69
A63G A94G | 1.98
A64U C113U | 0.05
A62U A116G | 1.13
G65A U72C | 0.21
G65C A111U | 0.07
G65C A111G | 0.01
A62G C112U | 0.01
A62C A111G | 0.03
A66G A95C | 1.5
A62G G106U | 0.01
A62C U87A | 1.54
A62U A90G | 1.26
A64G A118U | 0.97
A64G A118G | 0.89
A63G A111C | 0.02

Variant | self-cleavage
A63G A111G | 0.02
G65A A117G | 0.36
G65A A117U | 0.6
A64U U131C | 1.58
A64C U131C | 1.9
A62C A94G | 1.61
A62U U87C | 1.57
A64U A118G | 1.42
A64G U120C | 1.13
A64G U120A | 2.01
A62G A111G | 0.02
A63G A66G | 1.7
A63G A66C | 0.27
A62U U130C | 0.84
A64U U120G | 1.63
G65A A140G | 2.16
A63G A91G | 0.98
A63U A89C | 1.22
A62U A82G | 0.67
A62G A94U | 2.08
A64G A82G | 0.35
A63G A68G | 1.41
A63G A68C | 2.21
A62G A86G | 1.4

Variant | self-cleavage
A64U U70C | 1.06
A63G C105U | 0.05
A62U A92G | 1.34
A62C A67G | 0.86
A64U A68G | 2.16
A62C A66G | 1.51
A63C U139C | 1.97
A62U G83A | 1.98
A66C | 1.02
A66G | 1.09
A62C A125G | 0.58
A66G A68C | 1.13
A66G A68G | 0.62
A66C A95G | 1.92
A63G A95G | 2.26
A62U A69G | 0.81
A64G A110C | 0.36
A64G A110G | 0.22
A63G A116G | 1.17
A63U U108C | 0.01
A62G C76G | 0.06
A63G G79A | 0.11
G65A A110C | 0.19
A62G U124G | 1.13

Variant | self-cleavage
A62G U124C | 0.94
A64G A96U | 0.91
A64G A96G | 1.92
A62G U103C | 0.98
A62U A63U | 1.75
G65C A89U | 2.04
A62C A118G | 1.46
A62G A63G | 1.21
A62U A67G | 1.19
A62U A67C | 1.64
A63U U97C | 1.05
A62U G75A | 0.06
A64G A135G | 1.7
A66G A86C | 1.45
A66G A86G | 1.16
A62G U70A | 1.59
A62G U70C | 0.47
A62U A64G | 1.46
A62U A64U | 1.06
G65A A126U | 0.76
G65A A126G | 1.12
A64C U103A | 0.14
A64C U103C | 0.24
